Experimental data from article PMC4183622.

Legend:
[1] = biological target: Tr3DCatch1 (chimeric SpyAvidin tetramer of three core traptavidin subunits and one Dead streptavidin-SpyCatcher subunit) (UniProt P22629); test: gel shift on SDS-PAGE of unboiled samples, Coomassie staining; SpyAvidin tetramer incubated with the ligand for 1 h at room temperature in PBS; the SpyTag/SpyCatcher link is a covalent isopeptide bond
[2] = biological target: Tre (core traptavidin with a C-terminal hexaglutamate tag), homotetramer Tre4; test: mixed refolding, ion-exchange chromatography and SDS-PAGE with or without boiling; subunits refolded from dissolved inclusion bodies (alone or mixed) by dilution into PBS; tetramers separated on Q-HP with a NaCl gradient in 20 mM Tris-HCl pH 8.0; tetramers stay assembled on SDS-PAGE unless boiled
[3] = biological target: Tr (core traptavidin), homotetramer Tr4; test: as above

KTag-AffiHER2-SpyTag (SpyTag-linked affibody against HER2)
stoichiometry N [1]: 1

Tre (core traptavidin with a C-terminal hexaglutamate tag), homotetramer Tre4 (complex)
stoichiometry N [2]: 4

Tr (core traptavidin), homotetramer Tr4 (complex)
stoichiometry N [3]: 4
